How the values were obtained:
CHO cells = experiment: Microscopy of SMAD3 and MH2 constructs (subcellular localization); assay type: cell-based; conditions: overexpressed in CHO cells, fluorescence microscopy
Text: FIGS. 11A-11D are photomicrographs illustrating that mutation of SPS prevents the nuclear translocation of full length SMAD3. CHO cells overexpressing either Flag-SMAD3 (SMAD3) or its AAA mutant (AAA-SMAD3) were fixed and stained both with anti Flag Ab and DAPI.
FIGS. 12A-12F are photomicrographs illustrating that mutants of the SPS domain modulate the subcellular translocation of the MH2 region of SMAD3. CHO cells overexpressing MH2 domain of SMAD3 (WT-MH2), or the AAA (AAA-MH2) and DPD mutant (MH2-DPD) were fixed and visualized under florescent microscope.
Immunofluorescence Microscopy. Cells were fixed (30 min in 3% paraformaldehyde in PBS or 10 min with ice-cold methanol), followed by 5-min permeabilization with 0.2% Triton X-100 in PBS (23° C.). The fixed cells were sequentially incubated with the appropriate Abs (45 min) followed by rhodamine-conjugated secondary Abs (45 min) and DAPI. Slides were visualized using a fluorescence microscope (Nikon, Japan) at 400× magnifications.
Therefore, it seems likely that the SPS of SMAD3 operated similarly to that of ERK2. To examine whether this SPS of SMAD3 is involved in nuclear translocation WT-Flag-SMAD3 and a Flag-SMAD3 in which the SPS domain was replaced with three Ala residues (AAA-SMAD3) were overexpressed in CHO cells and their localization examined.

SPS domain = experiment: SPS phosphorylation detected by anti pSPS Ab Western blot; assay type: cell-based; conditions: COS7 cells, stimulated with VOOH, TPA, EGF or TGFβ, immunoprecipitation and Western blot
Procedure: FIGS. 4A-4I are autoradiographs characterizing SPS phosphorylation using an Ab to the phosphorylated SPS domain. FIG. 4A illustrates an elevation of pSPS detection upon stimulation. COS cells were transfected with WT-GFP-ERK2. Twenty-four hr after transfection, the cells were serum-starved for 16 hr and subsequently treated with the general stimulator VOOH (V, 100 μM Na3VO4 and 200 μM H2O2, 15 min), TPA (T, 250 nM, 15 min), EGF (E, 50 ng/ml for 15 min), or left untreated (NT). The GFP-ERK2 was immunoprecipitated with anti GFP Ab, extensively washed, and the IP was then subjected to Western blotting with anti phospho SPS-ERK (αphoSPS-ERK) and anti general ERK (αgen-ERK) Abs. FIG. 4B is a time course of SPS phosphorylation. COS7 cells overexpressing WT-GFP-ERK2 were serum starved followed by EGF stimulation for the indicated time points. The lysates were then subjected to Western blot analysis as in FIG. 4A. […] SPS phosphorylation was detected using the anti pSPS Abs, and this was compared to the amount of genral ERKs detected by αgERK. […] SPS-phosphorylation was detected using αpSPS and αgERK Abs. […] The phosphorylation (^32P-ERK2) of ERK and its mutants was detected by autoradiography. […]
FIG. 9B is an autoradiograph illustrating that stimulation elevates pSPS phosphorylation of 2GFP-SPS construct. […] The total amount of immunoprecipitated 2GFP-SPS was detected with αGFP Ab. […]

B1: WT-Flag-SMAD3: full length FLAG-SMAD3 (protein)
chain: MSSILPFTPPIVKRLLGWKKGEQNGQEEKWCEKAVKSLVKKLKKTGQLDELEKAITTQNVNTKCITIPRSLDGRLQVSHRKGLPHVIYCRLWRWPDLHSHHELRAMELCEFAFNMKKDEVCVNPYHYQRVETPVLPPVLVPRHTEIPAEFPPLDDYSHSIPENTNFPAGIEPQSNIPETPPPGYLSEDGETSDHQMNHSMDAGSPNLSPNPMSPAHNNLDLQPVTYCEPAFWCSISYYELNQRVGETFHASQPSMTVDGFTDPSNSERFCLGLLSNVNRNAAVELTRRHIGRGVRLYYIGGEVFAECLSDSAIFVQSPNCNQRYGWHPATVCKIPPGCNLKIFNNQEFAALLAQSVNQGFEAVYQLTRMCTIRMSFVKGWGAEYRRQTVTSTPCWIELHLNGPLQWLDKVLTQMGSPSIRCSSVS
modifications: left off: small tags and cut ends
- subcellular localization (CHO cells): nuclear localization
- SPS phosphorylation upon stimulation (anti pSPS Ab recognition) (SPS domain): phosphorylated on its SPS domain

From patent US10000771B2, “Nuclear targeting sequences” (Yeda Research and Development Co. Ltd., priority 2007, dated 2018)
